Assay results taken from the DeepSol protein solubility set.

assay: soluble on expression in E. coli; label from the status in PepcDB or PDB records

Soluble on expression in E. coli, not soluble:
MRAELNQGLIDFLKASPTPFHATASLARRLEAAGYRRLDERDAWHTETGGRYYVTRNDSSLIAIRLGRRSPLESGFRLVGAHTDSPCLRVKPNPEIARNGFLQLGVEVYGGALFAPWFDRDLSLAGRVTFRANGKLESRLVDFRKAIAVIPNLAIHLNRAANEGWPINAQNELPPIIAQLAPGEAADFRLLLDEQLLREHGITADVVLDYELSFYDTQSAAVVGLNDEFIAGARLDNLLSCHAGLEALLNAEGDENCILVCTDHEEVGSCSHCGADGPFLEQVLRRLLPEGDAFSRAIQRSLLVSADNAHGVHPNYADRHDANHGPALNGGPVIKINSNQRYATNSETAGFFRHLCQDSEVPVQSFVTRSDMGCGSTIGPITASQVGVRTVDIGLPTFAMHSIRELAGSHDLAHLVKVLGAFYASSELP
MSASRQRPGNHLLPTLFDRLCDDAPNQKRDHGISVSPVQIKEIIRRDLSFLLNTVSHEDDIDAARYPYAAASVLNYGLPPLAGSFLYEHKWDDIRRAILRTITRFEPRLKASTLQIIPLQDERRQSGHNTLQFEIRGEILTQPYPTAFRVRSALDMEQSRITFF
MKDTTRNTYLAVDFGGGSGRVIAGSLLQGKLELEEIHRFTNRQVKLGNHVYWDFPALFEDMKTGLKLAAQKGYHVKGIGIDTWGVDFGLIDKKGNLLGNPVCYRDARTDGMPDKVFQILDAQKHYACTGIQVMPINTLFQLYSMQQNQDVLLEVAQRLLFMPDLFSYYLTGVANNEYCIASTSELLDARQRNWSMDTIRALGLPEHLFGEIILPGTVRGTLKEEIGRETGLGPVDIIAVGSHDTASAVAAVPATEGQVAFLSSGTWSLLGVEVDEPILTEEARLAQFTNEGGVGGHIRFLQNITGLWILQRLMSEWKLRGEEQSYDTILPQAADAEIDTIIPVDDAEFMNPENMETALLNYCRNHSLKVPGNKAEMVKCVLQSLAFKYREAVAQLNRCLPSPIHRLNIIGGGSQNKLLNQLTANALGIPVYAGPVEATAMGNILTQAMAKGEISSLREIREVVSHSVTPQVYYPEK
MGSDKIHHHHHHILDSTIYLIGTAHFSKESQEDVSNTIRAVQPDFVMLELCPSRISIISMDEARLLSEAKDLNSQKIIQTMKQNGAIQGILHVLLLSMSAHVTRELSMAPGGEFRAAHRAAVATENCRVVLGDRPIQVTLQRALASLSIWQKIRFFFHVAFSHREKITAEEVERCKQRDLLEQLLAEMADDFPQLSQIFVEERDAYMTHALHMLVHRNSVEKRAQWLRGTTGQQFQPLTVVAVV
MAHHHHHHMSAAVQTLATVMATDMNYYAGDPTVLAADAASSRVEQILQSSRSDQLTARVAIHAQLREAFKNVDVQQRFKPFLSDGENIQMYVQDAKARARFFSQKQQELQHDILQSEEQRQLKEAHGELAAWERENAVLLRHQMFMTYMPSQALLLESAATVALYRQYATLEEGQYTSDSSDGEVPMMLKKMGGKTYFTQSEQPFEVDTHNKMFSQQVLQNKRVEYEQMREKAAQLRQALEECPTVKRLEAFVELRNDIFVAYGIDRLASLCSRKDKEMGNPNEGGVDASLHGLPADDEYVSSSRVAQYSLPKIVDAAYKNYLNILSMDDWDAMMKHTGSNARAVMEKIKPMKDKETFRYWFLSCITADVPQMGPNKIVGQKATTLEDYKKFWAPQKSNYVPSLTSNRSIFGSKVADRRGLPHFLILSPVTYRYRENNDPNAVKTGTMDLMVYDATNEKVLLMLTNSSDERRPRAAFLKAQEERYRFAAVVRSAITYENQYHGFECEGTVAEYFFDAQEGPEENYYCIMAPHRVYSKQPNKVQVPMKALRPFTSCPPRYFVLGSNWGVSAGTRRNPYPASYAHVELNENAVGLSNVIPDGFISSKVLPQLLSHAEGVQKLEEEMKRQQRAELERPQLSPRALTRASRGGAATPRPSTAPPSPENNAADILADENMRGPGEEEDPLSPLVPNEVLRPVRDQLLKQRRSWQSPAYIAFRARDSDLRRLPAVKDGHLRTPLNVFNDLMREKHGEDAPPASAPSSARRSNGPPSSRTASVACT
MGSDKIHHHHHHMSLAVTYTRAMIGVQAPDVYIEVHISSGLPALTLVGLPETTVKEARDRVRSALINCGFTFPAKRITVNLAPADLPKEGGRYDLPIALAILAASEQIDGEKLNRYEFLGELGLSGTLRGVNGAIPAALEAIKAGRQLILPDDNKREMTLIPQGEALMAGHLLQVCAFLSGEEELLSCSDMTPVPQPAEDTLDLKDIIGQEQAKRALEIAAAGGHNLLLLGPPGTGKTMLASRLGNLMPPLSDEEALESAAINSLINIDATMTRWRARPFRAPHHSSSMAALVGGGSLPKPGEISLAHNGVLFLDELPEFERRVLDSLREPLESGEIIISRTRAKVCYPARVQLVAAMNPSPSGHYQGIHNRLPAQQILRYLSKLSGPFLDRFDLSIEVPLLPPGVLSQQHYQGESSATIRERVLIARQIQLKRANKINALLTSREIERHCKLEMADAAYLEDVMNKLGLSVRAWHRILKVARTIADLGDRDNIEKKHLAEALSYRCMDRLLIQLHKSLE
MLKVEMLSTGDEVLYGQIVDTNAAWLADFFFHQGLPLSRRNTVGDNLDDLVTILRERSQHADVLIVNGGLGPTSDDLSALAAATAKGEGLVLHEAWLKEMERYFHERGRVMAPSNRKQAELPASAEFINNPVGTACGFAVQLNRCLMFFTPGVPSEFKVMVEHEILPRLRERFSLPQPPVCLRLTTFGRSESDLAQSLDTLQLPPGVTMGYRSSMPIIELKLTGPASEQQAMEKLWLDVKRVAGQSVIFEGTEGLPAQISRELQNRQFSLTLSEQFTGGLLALQLSRAGAPLLACEVIPSQEETLAQTAHWITERRANHFAGLALAVSGFENEHLNFALATPDGTFALRVRFSTTRYSLAIRQEVCAMMALNMLRRWLNGQDIASEHGWIEVVESMTLSV
MDFKQYSPEELKECSMIEVVHSVLGDKKQATTFNELVQEIAQVLGLSQEQVNAKIAQFYTDLNIDGRFINLGENRWGLRSWYPYEQIDEEILPQPKPKKKRKVEEDGFDDYIDEDEDDFDDVDGNEDEDDDVEDLDKVLEDEDGDDDDLDDLDEDEDDFAEEELEYDETEEEEEEEL
MNEIIGKFAREGILIEDNAYFRLREMDDPASVSSELIVKIKSNGGKFTVLTSEMLDEFFEIDNPAEIKARGPLMVPAERDFDFEVISDTSNRSYTSGEIGDMIAYFNSRYSSLKNLLSKRPELKGHIPIADLRGGEDVVSIIGMVNDVRNTKNNHRIIELEDDTGEISVVVHNENHKLFEKSEKIVRDEVVGVHGTKKGRFVVASEIFHPGVPRIQEKEMDFSVAFISDVHIGSQTFLEDAFMKFVKWINGDFGSEEQRSLAADVKYLVVAGDIVDGIGIYPGQEKELLIRDIHEQYEEAARLFGDIRSDIKIVMIPGNHDSSRIAEPQPAIPEEYAKSLYSIRNIEFLSNPSLVSLDGVRTLIYHGRSFDDMAMSVNGLSHERSDLIMEELLEKRHLAPIYGERTPLASEIEDHLVIDEVPHVLHTGHVHINAYKKYKGVHLINSGTFQSQTEFQKIYNIVPTCGQVPVLNRGVMKLLEFSLEHHHHHH

Soluble on expression in E. coli, soluble:
MEDKATQTPEQTFSMEAALQETEARLEKRVRPGQILTGKVVLVGSEGVAVDIGAKTEGIIPFNQLTTKPLSEEELRNLLSPGDEVKVQVLRVDPETGQILLSRKKIEAQEKWDRIQELYEKGEPVTVTIKERVKGGVVAELDGVQGFMPASQLDLRRVPNLDEFVGQQVLAKIIEFHRRKGRVILSRRAVLEEEQKKAREAFLKSLEPGQVVEGTVVEVTDFGVFVNLGPVDGLVHRSEITWGRFNHPREVIQKGQKVKAQVLSVDPEKERVNLSIKALIPDPWTTVAEKYPVGTRVRGKVVGLTQFGAFVEVEPGLEGLIHISELSWTKRPKHPSEVVKEGDEVEAVVLRLDPEERRLSLGLKQTQPDPWQQLTEKYPPGTVLKGKVTGVTDFGVFVEIEPGIEGLVHVSELDHKRVENPAALFKKGDEMEVVVLNIDPVEQRVSLSRKRLLPPPLPQEEERPRRARSGKERARRKGAPRREDRREYEYGAVAEYNLYDASSVPTTTATVKLGDLYGDLLASLGLEEEAEEKSRG
MSLNERVMMINANGVPIALYNRGHLGSGHFGAVIKASLDDGTLYAAKVPYSQIVPNADATSAELEAEISSARAELVKTIRQELDVRDKLVAKGLTLTETAEQYGLPLCQMTLTLPENKATVVRRGSRLVVVSKEVMLLPLIDGSPSNSLVQSQPPFLFQRAVAREAIIALAKLHELGFAHGDVKLNNMMIDVHGFGHMLDMGSVRPVDSCVSEEDKYYLRLWAPELAKSQHTSQQTCLKRGALDVWALGLAIFEFVCFNRLPYSLSNLPSSLWSRVEHLSRLRLSDFSAKDCNESDPAVMGIVAQFLNPNPEERPELPKFVSSYTFFRQAPGVTSHLTRIPTTELSSHREGHHHHHH
MLFSKETLKSFAQSKGISNIDDDALRVLSQDLEYRIKEVCQEGSKFMVGSKRTKLSIDDINYALTSRNVDPLFGYDPQESLVFRGLPSNVYYVPDEEIDLEEYLDRPLPKVPLRVSIQSHWLAIEGVQPQIPYNPILLEKPVAKKDTLGTYQEEAELKSQNKHMLTKELGMYFDKVIQAMESDEQTAMECLHNESGIQQLVPYFVHHFNEQIVKNIKNKEKLMTVVMVYSSLLKNKYIFVDPYLHQILPSLITCVIGKNVDDDVRKVAADVVKYVFSNFSSSYKTLAPRIINTLSKAWLDREKTESTQYGALFCLSILSKHVVETVIKPKADYYVREINNPRVVGLLKDILQSNGL
QNFLNDQFVIDSIVSAINPQKGQAMVEIGPGLAALTEPVGERLDQLTVIELDRDLAARLQTHPFLGPKLTIYQQDAMTFNFGELAEKMGQPLRVFGNLPYNISTPLMFHLFSYTDAIADMHFMLQKEVVNRLVAGPNSKAYGRLSVMAQYYCNVIPVLEVPPSAFTPPPKVDSAVVRLVPHATMPHPVKDVRVLSRITTEAFNQRRKTIRNSLGNLFSVEVLTGMGIDPAMRAENISVAQYCQMANYLAENA
SATALSEEELDNEDYYSLLNVRREASSEELKAAYRRLCMLYHPDKHRDPELKSQAERLFNLVHQAYEVLSDPQTRAIYDIYGKRGLEMEGWEVVERRRTPAEIREEFERLQREREERRLQQRTNPKGTISVGVDATDLFDRYDEEYEDVSGSSFPQIEINKMHISQSIEAPLTATDTAILSGSLSTQNGNGGGSINFALRRVTSAKGWGELEFGAGDLQGPLFGLKLFRNLTPRCFVTTNCALQFSSRGIRPGLTTVLARNLDKNTVGYLQWRWGIQSAMNTSIVRDTKTSHFTVALQLGIPHSFALISYQHKFQDDDQTRVKGSLKAGFFGTVVEYGAERKISRHSVLGAAVSVGVPQGVSLKVKELEKQRESAATDVLQKKQEAESAVRLMQESVRRIIEAEESRMGLIIVNAWYGKFVNDKSRKSEKVKVIDVTVPLQCLVKDSKLILTEASKAGLPGFYDPCVGEEKNLKVLYQFRGVLHQVMVLDSEALRIPKQSHRIDTDG
PTPKTELVQKFRVQYLGMLPVDRPVGMDTLNSAIENLMTSSSKEDWPSVNMNVADATVTVISEKNEEEVLVECRVRFLSFMGVGKDVHTFAFIMDTGNQRFECHVFWCEPNAANVSEAVQAACSGPSSGIEGRGSSGSSGSSGSSGDAAVTPEERHLSKMQQNGYENPTYKFFEQMQN
GYALTEGEDYLVLDKPIPQEQSGKIEVLEFFGYFCVHCHHFDPLLLKLGKALPSDAYLRTEHVVWQPEMLGLARMAAAVNLSGLKYQANPAVFKAVYEQKIRLENRSVAGKWALSQKGFDGKKLMRAYDSPEAAAAALKMQKLTEQYRIDSTPTVIVGGKYRVIFNNGFDGGVHTIKELVAKVREERKRQTPAVQK
